Among the data in paper PMC6992001 are stoichiometry N values, retold here.

This test deals with Pomacea canaliculata hemocyanin (PcH), native (Pomacea canaliculata). Briefly: negative-stain transmission electron microscopy; native PcH 0.12 g/L in 20 mM Tris-HCl pH 7.4, 20 mM CaCl2, 20 mM MgCl2; 2% uranyl acetate, room temperature; self-association of subunits into decamers stacked to multi-decamers.

Several values for one entry are separate records, joined by “and”; a condition that tells them apart may be missing. Equal entries are not always repeated.

As for “Pomacea canaliculata hemocyanin (PcH), native (complex)”, the stoichiometry N is 20 subunits and 30 subunits and 40 subunits.

Broadly, the stoichiometry N is the number of molecules, sites or subunits per partner or assembly.
